B1: 539B-M0016-D01 (Fab, V domains shown)
VH: EVQLLESGGGLVQPGGSLRLSCAASGFTFSEYNMPWVRQAPGKGLEWVSYIYSSGGSTEYADSVKGRFTISRDNSKNTLYLQMNSLRAEDMAVYYCAKDLWEDSSTWGYGMDVWGQGTTVTVSS
VL: QSELTQPPSVSVSPGQTATITCSGDVSVHKSFCWYQQRPGQSPVLVIYQIDKRPSGVPERFSGSISGTTATLTISGTQATDEADYYCQGWDSTTYYVFGTGTKVTVL
B2: 539B-M0042-B06 (Fab, V domains shown)
VH: EVQLLESGGGLVQPGGSLRLSCAASGFTFSFYHMEWVRQAPGKGLEWVSSISPSGGHTDYADSVKGRFTISRDNSKNTLYLQMNSLRAEDTAVYYCASLLSGTWGQGTLVTVSS
VL: DIQMTQSPDTLSLSPGERATLSCRASQTISSTFLAWYQQKPGQAPRLLIYGASTRAAGIPDRFIGSGSGTDFTLTISSLEPEDSAVYYCQQYDRSPTFGGGTKVEIK
B3: 539B-M0009-H08 (Fab, V domains shown)
VH: EVQLLESGGGLVQPGGSLRLSCAASGFTFSMYWMFWVRQAPGKGLEWVSSISSSGGHTFYADSVKGRFTISRDNSKNTLYLQMNSLRAEDTAVYYCARGSYSGYDPFDYWGRGTLVTVSS
VL: QYELTQPPALSVAPGETATITCGGDKIGRKSVNWYQQKAGQAPVLVIFYDNDRPSGITGRFSGSNSGNSATLTISRVEAGDEADFYCQVWGPNDFPLFGGGTKLTVL
B4: 539B-M0041-G01 (Fab, V domains shown)
VH: EVQLLESGGGLVQPGGSLRLSCAASGFTFSYYPMAWVRQAPGKGLEWVSYISSSGGLTTYADSVKGRFTISRDNSKNTLYLQMNSLRAEDTAVYYCARSPTYYDFWSGYWAGIFDYWGQGTLVTVSS
VL: DIQMTQSPSSLSASVGDRVTITCRASQSISYFLNWYQQKPGKAPKLLIYAASTLQGGVPSRFRGSGSGTDFTLTISSLQPEDFATYYCQHSYSTPPITFGPGTKVDIK
B5: 539B-M0039-F01 (Fab, V domains shown)
VH: EVQLLESGGGLVQPGGSLRLSCAASGFTFSRYWMDWVRQAPGKGLEWVSGIYPSGGYTLYADSVKGRFTISRDNSKNTLYLQMNSLRAEDTAVYYCARHGDYMDVWGKGTTVTVSS
VL: NIQMTQSPSSVSASVGDRVTITCRASQDINYWLAWYQQKPGKAPKLLIYAASSLQSGVPSRFSGSGSGTDFTLTISSLQPEDFATYYCQRANSFPYTFGQGTKLEIK
B6: 539B-M0034-C04 (Fab, V domains shown)
VH: EVQLLESGGGLVQPGGSLRLSCAASGFTFSEYPMYWVRQAPGKGLEWVSVIYPSGGWTDYADSVKGRFTISRDNSKNTLYLQMNSLRAEDTAVYYCARMAVTGGSRFDYWGQGTLVTVSS
VL: DIQMTQSPSSLSASVGDRVSITCRASQNINSYLNWYQQKVGKAPKLLIFGAYTLHSGAPSRFSGSGSGTDFTLTISSLQPEDVATYYCQQTYTSYSFAQGTKLEIK
B7: 539B-M0041-B05 (Fab, V domains shown)
VH: B6 VH
VL: B6 VL

These binders were tested against human MMP-12 (human) (UniProt P39900) (assay: cell-based or functional assay).
Chain of human MMP-12 (human) (P39900 106-470 limits assumed): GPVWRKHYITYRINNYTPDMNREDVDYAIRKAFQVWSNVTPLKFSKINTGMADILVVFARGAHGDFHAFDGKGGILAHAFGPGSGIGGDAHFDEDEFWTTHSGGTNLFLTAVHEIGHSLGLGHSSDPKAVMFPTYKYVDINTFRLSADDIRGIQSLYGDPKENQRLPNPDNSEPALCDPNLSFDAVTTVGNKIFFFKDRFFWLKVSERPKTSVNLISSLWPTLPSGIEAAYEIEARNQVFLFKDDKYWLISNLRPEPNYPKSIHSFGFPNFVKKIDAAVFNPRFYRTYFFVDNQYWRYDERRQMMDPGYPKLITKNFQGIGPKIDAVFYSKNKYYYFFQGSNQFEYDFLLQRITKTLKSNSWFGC

| % of activity left with 100 nM in assay 04 Oct. 2006 [%] | % of activity left with 100 nM in assay 29 Aug. 2006 [%] | Binder |
| --- | --- | --- |
| 48.1 | – | B1 |
| 53.6 | – | B2 |
| 103 | – | B3 |
| 109 | 84.8 | B4 |
| 69.4 | 57.8 | B5 |
| 38.6 | 39.1 | B6 |
| 35.1 | – | B7 |
